Data on three molecules can be found in US20020058798A1 (YEDA RESEARCH AND DEVELOPMENT, published 2002).

The target in one series is T1, SNF1 (UniProt P06782 1-633, limits assumed).
T1 sequence (looked up): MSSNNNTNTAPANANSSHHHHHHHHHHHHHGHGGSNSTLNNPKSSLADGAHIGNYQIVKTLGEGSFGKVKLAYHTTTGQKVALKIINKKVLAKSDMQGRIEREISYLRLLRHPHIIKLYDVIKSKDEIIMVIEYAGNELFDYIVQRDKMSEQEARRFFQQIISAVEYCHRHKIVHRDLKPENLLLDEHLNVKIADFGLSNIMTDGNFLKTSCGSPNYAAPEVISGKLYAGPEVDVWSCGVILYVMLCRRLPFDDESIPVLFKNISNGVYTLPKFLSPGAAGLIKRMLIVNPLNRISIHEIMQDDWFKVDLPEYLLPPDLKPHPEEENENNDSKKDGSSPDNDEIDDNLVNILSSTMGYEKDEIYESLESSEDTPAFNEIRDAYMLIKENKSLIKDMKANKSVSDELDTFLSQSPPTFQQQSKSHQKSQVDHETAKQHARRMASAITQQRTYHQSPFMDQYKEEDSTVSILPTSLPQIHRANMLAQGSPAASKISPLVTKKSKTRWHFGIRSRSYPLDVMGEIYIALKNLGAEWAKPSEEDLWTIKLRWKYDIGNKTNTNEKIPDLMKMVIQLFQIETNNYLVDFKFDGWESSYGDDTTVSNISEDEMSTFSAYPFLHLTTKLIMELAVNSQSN
Kind of series: yeast two-hybrid beta-galactosidase filter assay (SFY526); row = Gal4 DNA-binding-domain hybrid, column = activation-domain hybrid; + = strong color within 90 min; positive control.

Series [1] deals with the molecule itself. Kind of series: yeast two-hybrid beta-galactosidase filter assay (SFY526); row = Gal4 DNA-binding-domain hybrid, column = activation-domain hybrid; ++ = strong color within 30 min.
The target in a further series is T2, Mouse Fas-IC 197-306 (mouse, UniProt P25446 218-327).
T2 construct: range 197-306
T2 sequence (looked up): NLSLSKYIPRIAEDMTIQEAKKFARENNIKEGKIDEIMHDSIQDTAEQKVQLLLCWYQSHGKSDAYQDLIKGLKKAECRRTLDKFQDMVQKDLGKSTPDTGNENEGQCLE
The series is described as above.

In another series the target is T3, Mouse Fas-IC, full (mouse, UniProt P25446 187-327).
T3 construct: domain: FAS-IC (intracellular domain); also called mFAS-IC
T3 sequence (looked up): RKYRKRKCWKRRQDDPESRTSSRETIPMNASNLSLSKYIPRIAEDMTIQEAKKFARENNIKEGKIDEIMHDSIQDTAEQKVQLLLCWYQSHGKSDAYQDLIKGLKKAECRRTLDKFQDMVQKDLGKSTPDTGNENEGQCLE
The series is described as above.

Series [2] has as its target T4, GST-mFAS-IC I225A (GST fusion with FAS-IC containing an Ile to Ala replacement at position 225) (mouse, UniProt P25446 187-327).
T4 construct: also called GST-FAS-IC with a replacement at the lpr^cg mutation site; not shown: Glutathione S-transferase (GST)
T4 sequence (looked up): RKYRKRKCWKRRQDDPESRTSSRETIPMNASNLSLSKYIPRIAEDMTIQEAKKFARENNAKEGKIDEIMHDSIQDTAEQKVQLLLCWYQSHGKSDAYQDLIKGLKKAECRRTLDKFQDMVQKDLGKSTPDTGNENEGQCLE
The series can be described thus: GST pull-down: 35S-labeled FLAG-HF1 from HeLa extracts on GST fusion bound to glutathione beads, SDS-PAGE and autoradiography. An excerpt:
The [³⁵S] labeled proteins of the HeLa cells including the labeled FLAG-MORT1 fusion protein having been first extracted were subjected to interaction with the various GST and GST-FAS-IC proteins (bound to glutathione beads) and then to SDS-PAGE. As controls in all of the interaction experiments, extracts of HeLa cells transfected with luciferase were subjected to interactions with the GST and GST-FAS-IC fusion proteins and SDS-PAGE. FIGS. 1A and B are also described in Example 1.
Expression of HF1 (MORT-1) molecules fused at their N terminus with the FLAG octapeptide (FLAG-HF1) yielded in HeLa cells proteins of four distinct sizes—about 27, 28, 32, and 34 kD. […] Thus the in vitro interaction was evaluated by assessing, by autoradiography following SDS-PAGE, the binding of [³⁵S] metabolically labeled HF1, produced in transfected HeLa cells as a fusion with the FLAG octapeptide (FLAG-HF1), to GST, GST fusion with the human or mouse FAS-IC (GST-huFAS-IC, GST-mFAS-IC) or to GST fusion with FAS-IC containing an Ile to Ala replacement mutation at position 225.

B1: SNF4 (other, UniProt P12904 1-322, looked up)
chain: MKPTQDSQEKVSIEQQLAVESIRKFLNSKTSYDVLPVSYRLIVLDTSLLVKKSLNVLLQNSIVSAPLWDSKTSRFAGLLTTTDFINVIQYYFSNPDKFELVDKLQLDGLKDIERALGVDQLDTASIHPSRPLFEACLKMLESRSGRIPLIDQDEETHREIVVSVLTQYRILKFVALNCRETHFLKIPIGDLNIITQDNMKSCQMTTPVIDVIQMLTQGRVSSVPIIDENGYLINVYEAYDVLGLIKGGIYNDLSLSVGEALMRRSDDFEGVYTCTKNDKLSTIMDNIRKARVHRFFVVDDVGRLVGVLTLSDILKYILLGSN
As for B1, the binding result with SNF1 is recorded as “binds”.

B2: MORT-1 (full) (other)
chain: VNQAPECRFGGGILGPLGKRRDLARASEPRTEGARRAGPQPRPLADPAMDPFLVLLHSVSSSLSSSELTELKFLCLGRVVKRKLERVQSGLDLFSMLLEQNDLEPGHTELLRELLASLRRHDLLRRVDDFEAGAAAGAAPGEEDLCAAFNVICDNVGKDWRRLARQLKVSDTKIDSIEDRYPRNLTERVRESLRIWKNTEKENATVAHLVGALRSCQMNLVADLVQEVQQARDLQNRSGAMSPMSWNSDASTSEAS
notes: The Gal4 part is not written as a piece; Met 49 is a possible translation start; also called HF1; HF-1
B2: the binding result in series [1] is “binds”; with Mouse Fas-IC 197-306, “binds”; in the series with Mouse Fas-IC, full, “binds”.

B3: FLAG-MORT1 fusion protein (MORT-1 N-linked to the FLAG octapeptide) (other)
chain: VNQAPECRFGGGILGPLGKRRDLARASEPRTEGARRAGPQPRPLADPAMDPFLVLLHSVSSSLSSSELTELKFLCLGRVVKRKLERVQSGLDLFSMLLEQNDLEPGHTELLRELLASLRRHDLLRRVDDFEAGAAAGAAPGEEDLCAAFNVICDNVGKDWRRLARQLKVSDTKIDSIEDRYPRNLTERVRESLRIWKNTEKENATVAHLVGALRSCQMNLVADLVQEVQQARDLQNRSGAMSPMSWNSDASTSEAS
modifications: metabolically labeled with [35S]methionine (and [35S]cysteine for the co-immunoprecipitations)
notes: also called FLAG-HF1; HF1-FLAG; not shown: FLAG octapeptide (Eastman Kodak)
Consider B3, for which, in series [2], the binding result is “no binding”.
